In article PMC12445000, “Domain-Specific DNA Binding Activities of BRCA1 Reveal Substrate Preferences for Homologous Recombination and Telomere Regulation” one finds Kd data, which are given here for three molecules.

One data set concerns the target BRCA1 DBD2 (human, UniProt P38398 894-1057). The experiment in a line: BLI; 150 mM KCl; BLI (BLItz, SAX sensors, immobilized biotin-DNA) in Buffer H: 20 mM HEPES pH 7.5, 150 mM KCl, 5 mM TCEP, 5% glycerol, 25 C; steady-state 1:1 fit; errors 95% CI, n=3. The note with it: protein: recombinant, tags: Ni-NTA purified (details not given). In general terms: In BLI a coated tip is dipped into the sample, and binding shifts an interference pattern.

Another data set addresses BRCA1 DBD1 (human, UniProt P38398 330-554). Described as above. Particulars: protein: recombinant, tags: Ni-NTA purified (details not given).
Setting [1] is: label: 5' biotin on strand 1, 5' Cy3 on strand 2, blunt.

Sequence of BRCA1 DBD2 (P38398 894-1057): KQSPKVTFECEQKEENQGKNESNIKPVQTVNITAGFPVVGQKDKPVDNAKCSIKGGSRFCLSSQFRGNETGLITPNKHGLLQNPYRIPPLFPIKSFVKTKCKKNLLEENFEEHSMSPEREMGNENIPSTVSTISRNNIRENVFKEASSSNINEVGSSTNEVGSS
Sequence of BRCA1 DBD1 (P38398 330-554): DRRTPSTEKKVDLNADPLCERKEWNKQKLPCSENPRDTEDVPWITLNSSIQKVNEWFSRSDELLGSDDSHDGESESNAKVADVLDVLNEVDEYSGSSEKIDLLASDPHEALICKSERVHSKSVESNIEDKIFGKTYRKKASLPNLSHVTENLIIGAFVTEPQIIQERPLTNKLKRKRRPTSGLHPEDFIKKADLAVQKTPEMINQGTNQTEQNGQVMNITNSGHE

B1: Bioss60R (ssDNA) (ssDNA)
DNA: CCATGGCTCCTGAGCTAGCTGCAGTAGCCTAAAGGATGAAACTAGGATCTTATGCTCCAT
For B1, the dissociation constant Kd is 40.8 ± 3.7 nM in the data set with BRCA1 DBD2 (label: 5' biotin) and 68.4 ± 33.8 nM with BRCA1 DBD1 (label: 5' biotin).

B2: Biods60R (dsDNA) (dsDNA)
DNA 1: B1 DNA
DNA 2: ATGGAGCATAAGATCCTAGTTTCATCCTTTAGGCTACTGCAGCTAGCTCAGGAGCCATGG
Regarding B2, the Kd with BRCA1 DBD2 (setting [1]) was found to be 44.6 ± 6 nM; with BRCA1 DBD1 (setting [1]), 35.5 ± 9 nM.

For TTAGGGTTAGGGTTAGGGTTAGGG (structured_DNA) [BioG4Telo (G4)], the equilibrium dissociation constant (Kd) with BRCA1 DBD2 (label: 5' biotin, G4) came out at 34.7 ± 16.1 nM; in the data set with BRCA1 DBD1 (label: 5' biotin, G4), 67.2 ± 12.5 nM.

In general, Kd refers to the equilibrium constant for the complex coming apart.
